Like-named read-outs stand apart in the source and are kept apart here. Each block holds one binder with its values, some of them ahead of it.
How the values were obtained:
[1] = biological target: HLA-A*0203 (human); assay: competition with 125I standard peptide for purified HLA; gel filtration
[2] = biological target: HLA-A*0206 (human); assay: as above
[3] = biological target: HLA-A*0201 (human); assay: inhibition of 125I-labelled probe peptide binding to purified HLA, gel filtration; details: remark: other sources report otherwise
[4] = biological target: HLA-A*0202 (human); assay: as above; details: remark: other sources report otherwise
[5] = biological target: HLA-A*0206 (human); assay: as above; details: remark: other sources report otherwise
[6] = biological target: HLA-A*6802 (human); assay: as above; details: remark: other sources report otherwise
[7] = biological target: HLA-A*0301 (human); assay: competition with radiolabeled standard peptide on purified HLA-A*0301, gel filtration; details: scale: ratio
[8] = biological target: HLA-A*0203 (human); assay: inhibition of 125I-labelled probe peptide binding to purified HLA, gel filtration; details: remark: other sources report otherwise
[9] = biological target: HLA-A*0203 (human); assay: competitive inhibition of 125I-labelled standard peptide binding to purified HLA; details: remark: other sources report otherwise
[10] = biological target: HLA-A*0201 (human); assay: competition with 125I standard peptide for purified HLA; gel filtration
[11] = biological target: HLA-A*0202 (human); assay: as above
[12] = biological target: HLA-A*0201 (human); assay: inhibition of 125I-labelled probe peptide binding to purified HLA; gel filtration; details: remark: other sources report otherwise
[13] = biological target: HLA-A*0202 (human); assay: as above; details: remark: other sources report otherwise
[14] = biological target: HLA-A*0203 (human); assay: as above; details: remark: other sources report otherwise
[15] = biological target: HLA-A*0201 (human); assay: competitive inhibition of 125I-labelled standard peptide binding to purified HLA, gel filtration
[16] = biological target: HLA-A*0202 (human); assay: as above
[17] = biological target: HLA-A*0206 (human); assay: as above
[18] = biological target: HLA-A*6802 (human); assay: inhibition of 125I-labelled probe peptide binding to purified HLA; gel filtration; details: remark: other sources report otherwise
[19] = biological target: HLA-A*0201 (human); assay: competitive inhibition of 125I-labelled standard peptide binding to purified HLA, gel filtration; ratio = IC50 standard / IC50 test peptide; details: remark: other sources report otherwise
[20] = biological target: HLA-A*0203 (human); assay: as above; details: remark: other sources report otherwise
[21] = biological target: HLA-A*0206 (human); assay: inhibition of 125I-labelled probe peptide binding to purified HLA; gel filtration; details: remark: other sources report otherwise
[22] = biological target: HLA-A*1101 (human); assay: competition with 125I-labelled standard peptide for purified HLA-A*1101, gel filtration
[23] = biological target: HLA-A*0201 (human); assay: competition with 125I-labeled probe peptide for purified HLA, gel filtration
[24] = biological target: HLA-A*0202 (human); assay: as above
[25] = biological target: HLA-A*6802 (human); assay: as above
[26] = biological target: HLA-A*0203 (human); assay: competitive inhibition of 125I-labelled standard peptide binding to purified HLA, gel filtration
[27] = remark: other sources report otherwise

IC50 [1]: 9.6 nM
IC50 [2]: 43 nM
B1: Peptide 1418.23 … (PAP.21.T2) (peptide)
peptide: LTFFWLDRSV
modifications: not checked

IC50 [3]: 263 nM
IC50 [4]: 4.9 nM
IC50 [5]: 446 nM
IC50 [6]: 5000 nM
B2: Peptide 1419.66 (HuK2.170) … (peptide)
peptide: SLQCVSLHLL
modifications: not checked

binding affinity ratio [7]: 0.0005
B3: PSM 592 peptide … (peptide)
peptide: VLPFDCRDYA
modifications: not checked

IC50 [3]: 8.6 nM
IC50 [4]: 0.8 nM
IC50 [8]: 10 nM
IC50 [5]: 2310 nM
IC50 [6]: 2160 nM
B4: Peptide 1418.66 (HuK2.175.V11) … (peptide)
peptide: SLHLLSNDMCV
modifications: not checked

IC50 [9]: 115 nM
B5: Peptide 1389.12, … (PSA.118.V11) (peptide)
peptide: MLLRLSEPAEV
modifications: not checked

binding affinity ratio [7, 27]: 0.0003
B6: PSA 188 peptide … (peptide)
peptide: VTKFMLCAGR
modifications: not checked

IC50 [10]: 1.8 nM
IC50 [11]: 3.9 nM
IC50 [1]: 17 nM
IC50 [2]: 42 nM
B7: Peptide 1419.52 … (PAP.13.V10) (peptide)
peptide: SLSLGFLFLV
modifications: not checked

IC50 [3]: 500 nM
IC50 [4]: 51 nM
IC50 [8]: 417 nM
IC50 [6]: 2580 nM
B8: Peptide 60.0191 (HuK2.170) … (peptide)
peptide: SLQCVSLHL
modifications: not checked

IC50 [12]: 455 nM
IC50 [13]: 269 nM
IC50 [14]: 909 nM
B9: peptide 60.0207 (PAP.128.V9) (peptide)
peptide: GVSIWNPIV
modifications: not checked

binding affinity ratio [7]: 0.0006
B10: PAP 226 peptide … (peptide)
peptide: WATEDTMTK
modifications: not checked

binding affinity ratio (ratio to standard peptide) [15, 27]: 0.0003
binding affinity ratio (ratio to standard peptide) [16, 27]: 0.01
binding affinity ratio (ratio to standard peptide) [17, 27]: 0.0005
B11: … (Kallikrein, position 226) (peptide)
peptide: ITSWGPEPCA
modifications: not checked

IC50 [12]: 263 nM
IC50 [18]: 1820 nM
B12: peptide 63.0048 (PAP.234.V10) (peptide)
peptide: KLRELSELSV
modifications: not checked

IC50 [4]: 1.3 nM
IC50 [8]: 5.3 nM
IC50 [5]: 37 nM
IC50 [6]: 860 nM
B13: Peptide 1418.67 (HuK2.177.V11) … (peptide)
peptide: HLLSNDMCARV
modifications: not checked

binding affinity ratio [19]: 0.005
binding affinity ratio [20]: 0.02
B14: VLSIALSV (Kallikrein, position 5) (peptide)
peptide: VLSIALSV
modifications: not checked

IC50 [2, 27]: 51 nM
B15: Peptide 1418.22 … (HuK2.195.V9) (peptide)
peptide: FMLCAGLWV
modifications: not checked

IC50 [12]: 238 nM
IC50 [13]: 47 nM
IC50 [21]: 336 nM
B16: peptide 63.0042 (PAP.134.L2) (peptide)
peptide: PLLLWQPIPV
modifications: not checked

binding affinity ratio (IC50 of standard peptide / IC50 of test peptide) [22]: 0.0002
B17: PAP 39 … (peptide)
peptide: TLVFRHGDR
modifications: not checked

IC50 [23]: 64 nM
IC50 [24]: 0.4 nM
IC50 [25]: 320 nM
B18: Peptide 1126.14 … (PSM.469) (peptide)
peptide: LMYSLVHNL
modifications: not checked

binding affinity ratio (ratio to standard peptide) [15]: 0.0003
binding affinity ratio (ratio to standard peptide) [16]: 0.0036
binding affinity ratio (ratio to standard peptide) [26]: 0.003
binding affinity ratio (ratio to standard peptide) [17]: 0.0001
B19: … (PSA, position 222) (peptide)
peptide: ITSWGSEPCA
modifications: not checked

Source: patent US20070020327A1
